Results from paper PMC6786869.

Assays:
[1] = target: Als1p with the V326N mutation, V5-tagged, displayed on the surface of S. cerevisiae cells (Candida albicans) (UniProt Q5A8T4); assay: single-cell force spectroscopy (AFM); one live yeast cell on a polydopamine-coated tipless cantilever brought repeatedly into contact with another cell on a hydrophobic substrate; PBS, 20 C; 500 adhesion-rupture trials per cell pair
[2] = target: Wild-type Als1p (Candida albicans cell adhesion protein Als1p), V5-tagged, displayed on the surface of S. cerevisiae cells (Candida albicans) (UniProt Q5A8T4); assay: as above

| Substance | % of cell pairs binding [1] [%] | mean maximum rupture force per pair [1] [pN] | mean rupture force [1] [pN] | % of cell pairs binding [2] [%] | mean maximum rupture force per pair [2] [pN] | mean rupture force [2] [pN] |
| --- | --- | --- | --- | --- | --- | --- |
| Als1p with the V326N mutation, V5-tagged, displayed on the surface of S. cerevisiae cells (from UniProt Q5A8T4 18-1238) (natural protein) | 7 | 667 | 517 | – | – | – |
| Wild-type Als1p (Candida albicans cell adhesion protein Als1p), V5-tagged, displayed on the surface of S. cerevisiae cells (from UniProt Q5A8T4 18-1238) (natural protein) | 33 | 953 | 483 | 97 | 3330 | 1510 |
